# Assay results: publication PMC3315643
# B1: recPDH1 (recombinant pyranose dehydrogenase PDH1) (Macropsalliota meleagris) (protein)
# chain: AITYQHPDDLPSGVDYDFIVAGGGTAGLVVASRLSENSNWKVLVIEAGPSNKDAFVTRVPGLASTLGAGSPIDWNYTTIPQDGLDGRSLDYPRAKILGGCSTHNGMVYTRGSKDDWNSWAGIIGDQGLGWDSILPAIKKAEKFTQDFTDQSVKGHIDPSVHGFDGKLSVSAAYSNISFNDLLFETTKELNAEFPFKLDMNDGKPIGLGWTQYTIDNHAERSSSATSYLESTGDNVHVLVNTLVTRVLSASGNGTDFRKVEFAVDANSPKKQLEAKKEVIVAGGVIASPQILMNSGIGERKVLQAVGIDTLIDNPSVGKNLSDQGATSVMFDTTLPSTDFDVDAALTEWTNSHTGPLARGARLNHLTFVRLPDDKLNGQDPSSGKNSPHIEFQFAQITPQVPTLGVPKQAPLPAANSYRLLLQLAVVNLYSISRGSISLSDNNPFTYPLIDLNMFKEDIDIAILREGIRSAGRMFSSKAFKNSVNKFVYPPADATSDEDLDAFLRSSTFSYVHGVGTLSMSPKGASWGVVNPDFKVKGTSGLRVVDASVIPHAPAAHTQLPVYAFAEYASALIAKSYN
# Key:
# [1] = substrate: O=C1C=CC(=O)C(Cl)=C1; test: purified protein; settings: pH 5.0; 30.0 °C
# [2] = substrate: O=C1C=CC(=O)C=C1; test: purified protein; settings: pH 4.0; 30.0 °C
protein,measurement,setting,value
B1,Km,[1],620 ± 110 µM
same,kcat/Km,[1],20900 M⁻¹ s⁻¹
same,Km,[2],1380 ± 280 µM
same,kcat/Km,[2],54400 M⁻¹ s⁻¹
